In US5766897A, “Cysteine-pegylated proteins” (Incyte Pharmaceuticals, Inc., priority 1995, dated 1998):

How the values were obtained:
[1] = system: human neutrophil elastase; assay: second-order association rate constant vs elastase; assay type: biochemical
Description: Refolded or soluble protein was tested for capacity to inhibit thrombin in a standard assay. Briefly, serial 2-fold dilutions of PN-1 variant were added to microtiter plate wells (50 μl/well), followed by 50 μl of a 30 μg/ml heparin solution, followed by 1 NIH unit of thrombin in 50 μl. These were allowed to incubate at 25° C. for 15 minutes. Residual thrombin activity was measured by the addition of 50 μl S-2238 (Kabi Pharmaceuticals) at 0.625 mg/ml. […]
The second-order rate association constants were determined for appropriate inhibitors-proteases combinations by combining equal-molar amounts of each protein (determined by titration as above) for various times from 1 second to 4 hours (as appropriate) and following the activity loss. […] Alternatively, the apparent first order rate constant was determined from the slope of a plot of log (normalized activity) vs time. The second order rate constant was calculated by dividing the apparent first order rate constant by the PN-1 (or variant) concentration used.

Thrombin [2] = target: T1, Thrombin (Homo sapiens, UniProt P00734); assay: thrombin inhibition activity assay (D.4), specific activity; assay type: biochemical
Description: Refolded or soluble protein was tested for capacity to inhibit thrombin in a standard assay. Briefly, serial 2-fold dilutions of PN-1 variant were added to microtiter plate wells (50 μl/well), followed by 50 μl of a 30 μg/ml heparin solution, followed by 1 NIH unit of thrombin in 50 μl. These were allowed to incubate at 25° C. for 15 minutes. Residual thrombin activity was measured by the addition of 50 μl S-2238 (Kabi Pharmaceuticals) at 0.625 mg/ml. PN-1 variants were tested for their ability to inhibit urokinase using the substrate S-2444, plasmin using the substrate S-2390, tPA using the substrate S2288, Factor Xa using the substrate S-2222 or S-2765, kallikrein using the substrate S-2302, human neutrophil elastase using s-AAPV-pna (Sigma), cathepsin G using s-AAPF-pna (Sigma) in a similar manner, with or without the addition of heparin.
Each of the PN-1 site-directed mutant proteins, as well as wild type PN-1, were modified by cysteine-PEGylation using the protocol described in F.2. The activity of wild type PN-1, each of the PN-1 site-directed mutants, and the cysteine-PEGylated wild type and mutant proteins was determined using the assay described in D.4.

E. coli = assay: bactericidal effect of PN-1 added to E. coli; assay type: cell-based; settings: native PN-1 added to E. coli
Description: Alternatively, PN-1 can be generated in a soluble form within E. coli by adjusting the fermentation conditions. This procedure provides a greater yield of soluble PN-1 as the fermentation temperature is decreased from 37° C. to 26° C. with a concomitant loss in inclusion body material. This is quite an unexpected finding, since PN-1 is bactericidal when native PN-1 is added to E. coli. To purify soluble PN-1, the cell supernatant from the disruption step was clarified by centrifugation and filtration or by treatment with polycations such as polyethyleneimine or Biacryl™ followed by centrifugation and filtration, and the soluble protein was purified as above. The generation of soluble material has many advantages: there is more certainty that the protein is correctly folded, there are no refolding steps, there is greater reproducibility from batch to batch.

Thrombin [3] = target: T1, Thrombin; settings: background statement; cited from earlier work
Cathepsin G = settings: background statement; cited from earlier work
[4] = system: human neutrophil elastase; settings: background statement; cited from earlier work

B1: PN-1 (protein, UniProt P07093 20-398, looked up)
Glia-derived nexin: SHFNPLSLEELGSNTGIQVFNQIVKSRPHDNIVISPHGIASVLGMLQLGADGRTKKQLAMVMRYGVNGVGKILKKINKAIVSKKNKDIVTVANAVFVKNASEIEVPFVTRNKDVFQCEVRNVNFEDPASACDSINAWVKNETRDMIDNLLSPDLIDGVLTRLVLVNAVYFKGLWKSRFQPENTKKRTFVAADGKSYQVPMLAQLSVFRCGSTSAPNDLWYNFIELPYHGESISMLIALPTESSTPLSAIIPHISTKTIDSWMSIMVPKRVQVILPKFTAVAQTDLKEPLKVLGITDMFDSSKANFAKITTGSENLHVSHILQKAKIEVSEDGTKASAATTAILIARSSPPWFIVDRPFLFFIRHNPTGAVLFMGQINKP
- inhibitory activity against elastase [1]: no inhibitory activity against elastase
- ACTIVITY, AFTER PEG MODIFICATION (Thrombin [2]; after cysteine-PEGylation with Maleimido-PEG): 0.017 NIH units of thrombin inhibited per μg PN1 (variant)
- SPECIFIC ACTIVITY, BEFORE PEG MODIFICATION (Thrombin [2]; before PEG modification): 0.50 NIH units of thrombin inhibited per μg PN1 (variant)
- REL TO WT, BEFORE PEG MODIFICATION (Thrombin [2]; before PEG modification, activity relative to wild type PN-1): 1
- REL TO ACTIVITY BEFORE PEG, AFTER PEG MODIFICATION (Thrombin [2]; cysteine-PEGylated protein relative to same protein before PEGylation): 0.03
- effect on E. coli (E. coli): bactericidal
- acceleration of thrombin inhibition in the presence of heparin (Thrombin [3]): 50-100 fold
- inhibition of cathepsin G (Cathepsin G): does not inhibit
- inhibition of elastase [4]: does not inhibit
